Reference: patent publication US20110207796A1, “ALPHA-SYNUCLEIN KINASE” (Elan Pharma International Limited, priority 2008, published 2011)

B1: Over-Expressed PLK4 (protein, UniProt O00444 1-970, looked up)
Serine/threonine-protein …: MATCIGEKIEDFKVGNLLGKGSFAGVYRAESIHTGLEVAIKMIDKKAMYKAGMVQRVQNEVKIHCQLKHPSILELYNYFEDSNYVYLVLEMCHNGEMNRYLKNRVKPFSENEARHFMHQIITGMLYLHSHGILHRDLTLSNLLLTRNMNIKIADFGLATQLKMPHEKHYTLCGTPNYISPEIATRSAHGLESDVWSLGCMFYTLLIGRPPFDTDTVKNTLNKVVLADYEMPSFLSIEAKDLIHQLLRRNPADRLSLSSVLDHPFMSRNSSTKSKDLGTVEDSIDSGHATISTAITASSSTSISGSLFDKRRLLIGQPLPNKMTVFPKNKSSTDFSSSGDGNSFYTQWGNQETSNSGRGRVIQDAEERPHSRYLRRAYSSDRSGTSNSQSQAKTYTMERCHSAEMLSVSKRSGGGENEERYSPTDNNANIFNFFKEKTSSSSGSFERPDNNQALSNHLCPGKTPFPFADPTPQTETVQQWFGNLQINAHLRKTTEYDSISPNRDFQGHPDLQKDTSKNAWTDTKVKKNSDASDNAHSVKQQNTMKYMTALHSKPEIIQQECVFGSDPLSEQSKTRGMEPPWGYQNRTLRSITSPLVAHRLKPIRQKTKKAVVSILDSEEVCVELVKEYASQEYVKEVLQISSDGNTITIYYPNGGRGFPLADRPPSPTDNISRYSFDNLPEKYWRKYQYASRFVQLVRSKSPKITYFTRYAKCILMENSPGADFEVWFYDGVKIHKTEDFIQVIEKTGKSYTLKSESEVNSLKEEIKMYMDHANEGHRICLALESIISEEERKTRSAPFFPIIIGRKPGSTSSPKALSPPPSVDSNYPTRERASFNRMVMHSAASPTQAPILNPSMVTNEGLGLTTTASGTDISSNSLKDCLPKSAQLLKSVFVKNVGWATQLTSGAVWVQFNDGSQLVVQAGVSSISYTSPNGQTTRYGENEKLPDYIKQKLQCLSSILLMFSNPTPNFH
B2: Over-Expressed PLK3 (protein, UniProt Q9H4B4 1-646, looked up)
Serine/threonine-protein …: MEPAAGFLSPRPFQRAAAAPAPPAGPGPPPSALRGPELEMLAGLPTSDPGRLITDPRSGRTYLKGRLLGKGGFARCYEATDTETGSAYAVKVIPQSRVAKPHQREKILNEIELHRDLQHRHIVRFSHHFEDADNIYIFLELCSRKSLAHIWKARHTLLEPEVRYYLRQILSGLKYLHQRGILHRDLKLGNFFITENMELKVGDFGLAARLEPPEQRKKTICGTPNYVAPEVLLRQGHGPEADVWSLGCVMYTLLCGSPPFETADLKETYRCIKQVHYTLPASLSLPARQLLAAILRASPRDRPSIDQILRHDFFTKGYTPDRLPISSCVTVPDLTPPNPARSLFAKVTKSLFGRKKKSKNHAQERDEVSGLVSGLMRTSVGHQDARPEAPAASGPAPVSLVETAPEDSSPRGTLASSGDGFEEGLTVATVVESALCALRNCIAFMPPAEQNPAPLAQPEPLVWVSKWVDYSNKFGFGYQLSSRRVAVLFNDGTHMALSANRKTVHYNPTSTKHFSFSVGAVPRALQPQLGILRYFASYMEQHLMKGGDLPSVEEVEVPAPPLLLQWVKTDQALLMLFSDGTVQVNFYGDHTKLILSGWEPLLVTFVARNRSACTYLASHLRQLGCSPDLRQRLRYALRLLRDRSPA
B3: Over-Expressed PLK2 (protein, UniProt Q9NYY3 1-685, looked up)
Serine/threonine-protein …: MELLRTITYQPAASTKMCEQALGKGCGADSKKKRPPQPPEESQPPQSQAQVPPAAPHHHHHHSHSGPEISRIIVDPTTGKRYCRGKVLGKGGFAKCYEMTDLTNNKVYAAKIIPHSRVAKPHQREKIDKEIELHRILHHKHVVQFYHYFEDKENIYILLEYCSRRSMAHILKARKVLTEPEVRYYLRQIVSGLKYLHEQEILHRDLKLGNFFINEAMELKVGDFGLAARLEPLEHRRRTICGTPNYLSPEVLNKQGHGCESDIWALGCVMYTMLLGRPPFETTNLKETYRCIREARYTMPSSLLAPAKHLIASMLSKNPEDRPSLDDIIRHDFFLQGFTPDRLSSSCCHTVPDFHLSSPAKNFFKKAAAALFGGKKDKARYIDTHNRVSKEDEDIYKLRHDLKKTSITQQPSKHRTDEELQPPTTTVARSGTPAVENKQQIGDAIRMIVRGTLGSCSSSSECLEDSTMGSVADTVARVLRGCLENMPEADCIPKEQLSTSFQWVTKWVDYSNKYGFGYQLSDHTVGVLFNNGAHMSLLPDKKTVHYYAELGQCSVFPATDAPEQFISQVTVLKYFSHYMEENLMDGGDLPSVTDIRRPRLYLLQWLKSDKALMMLFNDGTFQVNFYHDHTKIIICSQNEEYLLTYINEDRISTTFRLTTLLMSGCSSELKNRMEYALNMLLQRCN

System: synuclein phosphorylation
Test: overexpression of PLK family members with WT-synuclein in HEK-293 cells, phospho-synuclein ELISA
Type: cell-based, human
Conditions: 48 hours post-transfection, with WT-synuclein
Procedure: HEK-293 naïve cells were transfected with an expression vector encoding PLK1, PLK2, PLK3, or PLK4 under the control of a CMV promoter, or empty vector, together with an expression vector encoding WT-synuclein. All vectors had the sequence coding for the protein of interest. Transfection was accomplished using Lipofectamine 2000 (Invitrogen, Carlsbad, Calif.) with 0.08 μg vector. Cells were washed and harvested 48 hours post-transfection. A Micro BCA (Pierce) total protein assay and total synuclein and phospho-synuclein ELISAs were performed on each plate of treated cells.

Row | Molecule | Proportion of total synuclein that is phoshorylated at ser-129
1 | B1 | 1.9%
2 | B2 | 79.2%
3 | B3 | 42.3%

Same assay, conditions: relative to endogenous kinase (2.0%)

Row | Molecule | Fold Change in Percent Synuclein Phosphorylation
4 | B1 | 1.0
5 | B2 | 39.6
6 | B3 | 21.2
